Some results are limits rather than exact numbers.

Assay [1] deals with integrin αIIbβ3 exogenously expressed on CHO and COS-7 cells, P08514;P05106. The assay is described as follows: cell attachment assay (cells on protein-coated plate). Conditions: read off a plot.
For assay [2], the target named is integrin αvβ3 on HUVEC cells, P06756;P05106. The description is as above.
Assay [3] addresses integrin αvβ3 exogenously expressed on CHO and COS-7 cells, P06756;P05106. The description is as above. The following applies: read off a plot.
Assay [4] deals with ProAgio (D1-CD2 variant 3) (UniProt P06729). The description is as above. Conditions: CHO cells expressing αvβ3 wild type or β3-KKQ; parent: est. 190; read off a plot; scale: cells attached/field.
In assay [5] the target is ProAgio (D1-CD2 variant 3) (not stated (human and rat D1-CD2 are named)) (UniProt P06729). Briefly: cell attachment assay; culture plates coated with ProAgio; cells cultured 35 min, washed three times, attached cells counted per view field; some runs with 5 μM Cilengitide or 40 μg/ml antibody LM609.
Sequence of ProAgio (D1-CD2 variant 3) (not stated (human and rat D1-CD2 are named)) (P06729 25-206, change not shown): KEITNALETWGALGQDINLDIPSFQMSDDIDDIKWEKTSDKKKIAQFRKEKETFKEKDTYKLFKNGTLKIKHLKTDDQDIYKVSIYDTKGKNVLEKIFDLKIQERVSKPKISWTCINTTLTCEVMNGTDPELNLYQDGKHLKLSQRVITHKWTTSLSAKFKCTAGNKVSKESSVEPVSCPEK

In the case of “D1-CD2 D99N; I102V; Q103I; E104I; E83T; T9V; W10Q; G11M; A12K”, the response (cells attached/field) was determined as 50 in assay [1] (CHO cells expressing αIIbβ3); 50 in assay [1] (COS-7 cells expressing αIIbβ3); 280 in assay [2] (40 μg ml−1 antibody LM609 (bar is labelled 'Cilengitide' in the image), read off a plot); 310 in assay [2] (BSA as control, read off a plot); 340 in assay [2] (IgG as control, read off a plot); 230 in assay [2] (in the presence of 5 μM of Cilengitide, read off a plot). Moreover, the response (cells attached/field) in assay [2] (parent: est. 45, read off a plot) is 290; in assay [3] (CHO cells expressing αvβ3 (CHOαVβ3), parent: est. 100), 350; in assay [3] (CHO cells expressing αvβ3), 280; in assay [3] (COS-7 cells expressing αvβ3 (COS7αVβ3), parent: est. 90), 310; in assay [3] (COS-7 cells expressing αvβ3), 350.

As for “integrin αvβ3 exogenously expressed on CHO and COS-7 cells (from UniProt P06756;P05106) β3-KKQ”, the response in assay [4] was determined as 44.

As for “integrin αvβ5 expressed on COS-7 cells (from UniProt P06756 31-1048; P18084 24-799) (receptor)”, in assay [5], the fold less attachment than αvβ3-expressing cells is above 3 fold.

Source of the values: article PMC4895024.
